Data on two molecules can be found in article PMC11496930 (2024).

By koff is commonly meant the rate constant with which the complex falls apart. A higher koff goes with fast dissociation.

In experiment [1] the target is T1, ADI-19425 Fab (human, UniProt P0DOY2 1-106). Kind of experiment: BLI. Background: In BLI a coated tip is dipped into the sample, and binding shifts an interference pattern.
The target in experiment [2] is T1, ADI-19425 Fab. As to the kind of experiment: BLI. The source holds these as a separate data set.

Like-named read-outs stand apart in the source and are kept apart here.

B1: 1D3 recombinant IgG (human constant regions) (antibody, V domains shown)
VH: QVQIQQSGAELMRPGASVKLSCKATGYTFTGYWIEWVKQRPGHGLEWIGEILSGRGTTNYNEKFKGKATFTADTYSNTAYMQLSSLTTGDSAIYYCARGGFLYGDGPFDYWGQGTTLTVSS
VL: DILLTQSPAILSVSPGERVSFSCRASQNIDTHIHWYQQRTNGSPRLLIKYASESISGIPSRFSGSGSGTDFTLTINSVESEDIADYYCQQSNSWPFTFGSGTKLEIK
Turning to B1, the off-rate constant (koff) in experiment [1] was 0.000115 s⁻¹.

B2: 2C1 recombinant IgG (human constant regions) (antibody, V domains shown)
VH: QVQLQQSGAELVRPGASVTLSCKASGYIFTDYEIHWLKQTPVHGLEWIGTSDPETGGFAYTQKFKGKAILTADKSSSTAYMELRSLTSEDSAVYYCTRRPYYGSGAWFAYWGQGTLVTVSA
VL: DIVMTQSHKFMSTSVGDRVSITCKANHDVNIAVAWYQQKPGQSPKLLIYSASYRYTGVPDRFTGSGSGTDFTFTISSVQAEDLAVYYCQQHYDTPRTFGGGTKLEIK
Regarding B2, in experiment [2], the off-rate (koff) was found to be 0.000442 s⁻¹.
